Entries after “also recorded” stand apart in the source; their conditions may differ.
T1: human TARS (Homo sapiens, UniProt P26639)
T1 construct: His6 (N); made in house; host or cells: E. coli Rosetta 2(DE3)pLysS, plasmid pET28a hctThrRS
T1 sequence (P26639 1-723): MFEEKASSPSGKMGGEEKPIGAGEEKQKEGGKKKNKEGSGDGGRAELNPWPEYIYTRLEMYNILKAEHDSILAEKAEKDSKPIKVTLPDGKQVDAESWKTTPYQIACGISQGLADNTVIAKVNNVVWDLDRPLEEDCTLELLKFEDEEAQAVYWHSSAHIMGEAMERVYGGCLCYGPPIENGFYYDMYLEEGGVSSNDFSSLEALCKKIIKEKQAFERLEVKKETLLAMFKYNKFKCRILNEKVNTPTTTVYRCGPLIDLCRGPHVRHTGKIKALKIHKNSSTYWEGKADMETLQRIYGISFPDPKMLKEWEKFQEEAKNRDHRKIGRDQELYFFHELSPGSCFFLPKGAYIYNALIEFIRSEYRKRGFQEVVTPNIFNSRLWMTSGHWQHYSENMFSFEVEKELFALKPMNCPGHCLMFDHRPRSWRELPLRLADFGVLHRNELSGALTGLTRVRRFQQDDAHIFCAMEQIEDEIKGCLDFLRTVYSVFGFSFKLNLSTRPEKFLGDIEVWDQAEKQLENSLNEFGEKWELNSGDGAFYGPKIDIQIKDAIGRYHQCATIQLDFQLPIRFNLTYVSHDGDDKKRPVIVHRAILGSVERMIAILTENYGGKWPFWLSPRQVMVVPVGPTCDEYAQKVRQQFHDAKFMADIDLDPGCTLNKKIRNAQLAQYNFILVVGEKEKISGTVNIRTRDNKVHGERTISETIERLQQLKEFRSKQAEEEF


Key:
[1] = tested on: Human umbilical vein endothelial cells (HUVECs); test: In vitro endothelial tube formation assay; assay type: cell-based
Method: In vitro Tube Formation Assay-Tube formation assays were performed as described (Arnaoutova and Kleinman 2010; Cassavaugh, Hale et al. 2011). Human Umbilical Vein Endothelial Cells (HUVECs) were seeded in 48-well plates (1.5×10^4 cells/well) coated with 100 μl of Matrigel™ Basement Membrane Matrix Growth Factor Reduced (BD Biosciences, San Jose, Calif.) and incubated in Clonetics® EGM®-2 complete media (Lonza, Annandale, N.J.) or EGM®-2 with reduced serum (0.2% fetal bovine serum). Cells were incubated at 37° C. for 6 h then fixed in 10% formalin. Fixed samples were imaged by phase-contrast microscopy or stained with Oregon Green 488 Phalloidin (Molecular Probes, Eugene, Oreg.) then imaged with fluorescence microscopy (2× objective). Number of tubes and tube lengths (in pixels) were quantified using the Simple Neurite Tracer (Longair, Baker et al. 2011) plug-in on ImageJ software (NIH). Statistical analysis of one-way ANOVA was performed with GraphPad Software. Multiple comparisons were performed using the Tukey Test.

HUVEC = test: Transwell migration assay; assay type: cell-based, human; settings: 4 h
Method: Transwell Migration Assay—Migration was assessed using transwell inserts (Svensson, Kucharzewska et al. 2011). HUVEC cultures were serum-depleted overnight in Clonetics® EGM®-2 modified with 0.2% fetal bovine serum then 5×10^4 cells were plated in 90% EBM®-2, 10% EGM®-2 in the upper chamber of 0.2% gelatin-coated 24-well 8 μm Transwell® inserts (Corning, Tewksbury, Mass.) with 90% EBM®-2, 10% EGM®-2 media plus 50 ng/ml VEGF, 1-100 nM TARS protein, or 10 nM BC194 in the lower chamber. Cultures were incubated for 4 h, fixed in 10% formalin, and stained with 10 μg/ml DAPI solution (Roche) following removal of cells from the top layer of the chamber with a cotton swab. Migrated cells were imaged using a 4× objective on the Olympus 1×70 Inverted microscope (Olympus). DAPI-stained nuclei were counted using ImageJ software.

HUVECs = test: Endothelial cell proliferation assay (alamarBlue); assay type: cell-based, human
Method: Endothelial Cell Proliferation Assay—The […] alamarBlue® (Invitrogen) reagent was used to assess cell proliferation (Ahmed, Gogal et al. 1994). HUVECs were seeded in a 96-well dish (1×10^3 cells/well) and grown for 48 h in EGM®-2 media. Cells were incubated in 0.2% FBS EGM®-2 media or EGM®-2 complete media as indicated; VEGF (50 ng/ml) and media alone served as controls. After 48 h, 72 h, or 96 h in culture, 10 μl/well premixed alamarBlue® (Invitrogen) was added and after 3 h at 37° C. the amount of reduced alamarBlue® was quantified by fluorescence (excitation at 530 nm, emission at 590 nm) on a microplate reader (Synergy™ HT, BioTek, Winooski, Vt.).

[2] = tested on: chorioallantoic membrane (CAM); test: Chick chorioallantoic membrane (CAM) assay; assay type: in vivo, chicken
Method: Chick Chorioallantoic Membrane Assay-Fertilized chicken eggs (Sunrise Farms, Catskill, N.Y.) day 1-2 post-laying were incubated in a humidified incubator at 37° C. for 72 h. Cleaned eggs were cracked and plated in a sterile 10 cm^2 tissue culture-treated dish and incubated at 37° C. for another 7 days. On developmental day 10, 1 mm^3 sterile gelatin sponge pieces (Surgifoam®; Johnson & Johnson Wound Management, Somerville, N.J.) were placed within the outer one-third of the membrane between large vessels. 40 μg/ml human bFGF and 2 μg/mL human VEGF were used as pro-angiogenic control compounds; 100 μg/mL retinoic acid (Sigma-Aldrich, St. Louis, Mo.) diluted in phosphate-buffered saline (PBS) was used as an angiostatic control. All compounds were applied in 10 μl to the CAM every 24 h for 72 h. Images were taken using a Leica MZ6 stereomicroscope every 24 h. Compounds were scored according to a modified version of Intensity Scoring as previously described (Ribatti, Nico et al. 2006). Briefly, each experimental condition was given a blinded score from 0-5 based on the change in the extent of vessel convergence and formation in proximity to the sponge from day 0 to day 3. Total score is averaged individual experimental condition scores from at least 15 replicates.
Fertilized chicken embryos were cultured ex-ova and, starting at developmental day 10, agents were applied daily to gelfoam sponges on the CAM. Images were recorded daily over 72 h and scored blindly according to a modified version Intensity Scoring as previously described (Ribatti, Nico et al. 2006). Additional details regarding methods are provided in the Methods and Materials section of Example 1.

human TARS [3] = biological target: T1, human TARS; test: Ap4A formation assay; assay type: biochemical; settings: FIGS. 17C and 17D, 10 μM compound
Method: (§1) TARS purification and active site determination were performed as previously described (Williams, Mirando et al., 2013). TARS non-canonical catalytic activities were characterized using modifications from published methods (Guo, Chong et al. 2009). For Ap4A reactions 5 μM of wildtype TARS or R442A TARS were incubated for 10 minutes on ice with 2 mM threonine, and 10 μM BC194 or borrelidin as indicated in FIG. 17C. Reactions were initiated using 2 mM ATP with trace amounts of [α-^32P]-ATP as label. At specific time points aliquots were quenched in 3 volumes of 0.1% SDS, 400 mM sodium acetate and resolved on polyethyleneimine-cellulose plates by thin-layer chromatography (TLC) in 3 M NH4 (SO4)2 and 2% EDTA. Radioactive counts were identified by phosphorimaging and products quantified as fractions of total ATP added. The quantitation of product was normalized to take into account the fact that each Ap4A molecule has two equivalents of radioactive phosphorus.

human TARS [4] = biological target: T1, human TARS; test: GTPase assay (GTP hydrolysis); assay type: biochemical; settings: 10 μM BC194 or 10 μM borrelidin
human TARS [5] = test: Steady state aminoacylation assay; assay type: biochemical; settings: purified protein
Method: Steady State Aminoacylation Assay-The aminoacylation activities of the TARS constructs were determined using modifications to established procedures ([…] et al 2008). Briefly, reaction mixtures consisted of 20 mM Tris-HCl pH 8.0, 100 mM KCl, 10 mM MgCl2, 1 mM dithiothreitol, 2 mM ATP, 2.5 U pyrophosphatase (Roche), 80 μM threonine, 20 μM [14C]-threonine, and 5 μM of E. coli or human […]. Reactions were initiated with the addition of 0.25-0.75 μM TARS and run at 37° C. Aliquots were taken at varying time points and spotted onto Whatmann 3MM paper filters pre-soaked in 5% trichloroacetic acid (TCA). Upon completion, the filters were washed 3 times in excess TCA, once in 95% ethanol, and dried under a heating lamp. The formation of […] was detected by scintillation counter and the activity determined by linear regression of […] formed per active site per unit time.

human TARS [6] = test: Ap4G formation assay; assay type: biochemical; settings: 2 mM ATP, 2 mM threonine, 2 mM GTP
human TARS [7] = test: Ap4A formation assay; assay type: biochemical; settings: 5 μM enzyme, 2 mM threonine, 2 mM ATP
Method: as §1

human TARS [8] = test: GTPase assay (GTP hydrolysis); assay type: biochemical; settings: 2 mM GTP

Molecule	tube (branch) length ([1]; HUVECs on Matrigel, range of BC194 concentrations)	effect on VEGF- and TARS-mediated migration (HUVEC; 10 nM BC194 with 50 ng/ml VEGF or 100 nM TARS)	effect on VEGF proliferative response (HUVECs; 10 nM BC194, 50 ng/ml VEGF, low serum media)	inhibition of vessel formation on the CAM ([2]; daily application to gel sponge, basal, bFGF (40 μg/ml) or VEGF (2 μg/ml) stimulated)	inhibition of Ap4A and Ap4G synthesis (in words) (human TARS [3])	change of TARS GTPase activity upon treatment (human TARS [4])	aminoacylation activity of the protein (human TARS [5])	number of tube branches after exogenous protein ([1]; 100 nM purified recombinant human TARS in low serum media (0.2% FBS), 6 h)	migration of endothelial cells (HUVEC; 100 nM TARS or 100 nM LARS in migration compartment)	rate of Ap4G formation (human TARS [6]) [Ap4G/active site/min]	cell proliferation with TARS (HUVECs; HUVECs in low serum (0.2% FBS) media)	sensitivity of protein-stimulated CAM vessel formation to BC194 ([2]; protein applied together with BC194)	vessel formation / vascularization on the CAM after applied protein ([2]; purified protein applied daily to sponge, scored over 72 h)	production of Ap4A (human TARS [7]) [Ap4A/active site/min]	GTP hydrolysis (human TARS [8]) [GDP/active site/min]
C[C@@H]1C[C@H](C)C[C@H](C)[C@@H](O)CC(=O)O[C@H]([C@@H]2CC[C@H]2C(=O)O)C/C=C/C=C(/C#N)[C@H](O)[C@@H](C)C1 [BC194, reference compound]	does not affect endothelial tube branch length	reduced both the migration effects of VEGF and TARS	did not significantly reduce the VEGF proliferative response	inhibited vessel formation at both the basal level and after stimulation with either bFGF or VEGF	at least partially inhibited	no observable change	–	–	–	–	–	–	–	–	–
C[C@@H]1C[C@H](C)C[C@H](C)[C@@H](O)CC(=O)O[C@H]([C@@H]2CCC[C@H]2C(=O)O)C/C=C/C=C(/C#N)[C@H](O)[C@@H](C)C1 [borrelidin, reference compound]	–	–	–	–	at least partially inhibited	no observable change	–	–	–	–	–	–	–	–	–
TARS: N-terminal His6-tagged human threonyl-tRNA synthetase expressed and purified from E. coli (protein, UniProt P26639 1-723, looked up, N-terminal His6 tag, N-terminal His6-tagged human threonyl-tRNA synthetase expressed and purified from E. coli) Threonine--tRNA ligase 1, …: MFEEKASSPSGKMGGEEKPIGAGEEKQKEGGKKKNKEGSGDGGRAELNPWPEYIYTRLEMYNILKAEHDSILAEKAEKDSKPIKVTLPDGKQVDAESWKTTPYQIACGISQGLADNTVIAKVNNVVWDLDRPLEEDCTLELLKFEDEEAQAVYWHSSAHIMGEAMERVYGGCLCYGPPIENGFYYDMYLEEGGVSSNDFSSLEALCKKIIKEKQAFERLEVKKETLLAMFKYNKFKCRILNEKVNTPTTTVYRCGPLIDLCRGPHVRHTGKIKALKIHKNSSTYWEGKADMETLQRIYGISFPDPKMLKEWEKFQEEAKNRDHRKIGRDQELYFFHELSPGSCFFLPKGAYIYNALIEFIRSEYRKRGFQEVVTPNIFNSRLWMTSGHWQHYSENMFSFEVEKELFALKPMNCPGHCLMFDHRPRSWRELPLRLADFGVLHRNELSGALTGLTRVRRFQQDDAHIFCAMEQIEDEIKGCLDFLRTVYSVFGFSFKLNLSTRPEKFLGDIEVWDQAEKQLENSLNEFGEKWELNSGDGAFYGPKIDIQIKDAIGRYHQCATIQLDFQLPIRFNLTYVSHDGDDKKRPVIVHRAILGSVERMIAILTENYGGKWPFWLSPRQVMVVPVGPTCDEYAQKVRQQFHDAKFMADIDLDPGCTLNKKIRNAQLAQYNFILVVGEKEKISGTVNIRTRDNKVHGERTISETIERLQQLKEFRSKQAEEEF	–	–	–	–	–	–	exhibits aminoacyl synthetase activity	significantly increased the number of tube branches; also recorded: promotes angiogenesis	significantly increased migration of endothelial cells; also recorded: selectively induces migration of endothelial cells	0.1639	did not exert a significant effect on cell proliferation; also recorded: does not significantly affect cell proliferation	sensitive to BC194	stimulated vessel formation; also recorded: induces in vivo angiogenesis	0.1391	0.3033

From US11225653B2, “Methods and compounds for reducing threonyl-tRNA synthetase activity” (University of Vermont and State Agricultural College, priority 2012, dated 2022)
